Measurements published in patent US20100136005A1 (Genentech, published 2010).
Where a chain is given by its changes, count along the chain named.

What was measured:
[1] = molecular target: T1, human CD11a (human, UniProt P20701 26-1170); assay: cell-based or functional assay
[2] = molecular target: T1, human CD11a; assay: cell-based or functional assay; remark: listed apart in the source
[3] = molecular target: T2, rhesus CD11a (rhesus, UniProt H9Z8N3 26-1169); assay: cell binding, rhesus against human CD11a
T2 construct: whole, on cells; also called rhCD11a
T2 sequence: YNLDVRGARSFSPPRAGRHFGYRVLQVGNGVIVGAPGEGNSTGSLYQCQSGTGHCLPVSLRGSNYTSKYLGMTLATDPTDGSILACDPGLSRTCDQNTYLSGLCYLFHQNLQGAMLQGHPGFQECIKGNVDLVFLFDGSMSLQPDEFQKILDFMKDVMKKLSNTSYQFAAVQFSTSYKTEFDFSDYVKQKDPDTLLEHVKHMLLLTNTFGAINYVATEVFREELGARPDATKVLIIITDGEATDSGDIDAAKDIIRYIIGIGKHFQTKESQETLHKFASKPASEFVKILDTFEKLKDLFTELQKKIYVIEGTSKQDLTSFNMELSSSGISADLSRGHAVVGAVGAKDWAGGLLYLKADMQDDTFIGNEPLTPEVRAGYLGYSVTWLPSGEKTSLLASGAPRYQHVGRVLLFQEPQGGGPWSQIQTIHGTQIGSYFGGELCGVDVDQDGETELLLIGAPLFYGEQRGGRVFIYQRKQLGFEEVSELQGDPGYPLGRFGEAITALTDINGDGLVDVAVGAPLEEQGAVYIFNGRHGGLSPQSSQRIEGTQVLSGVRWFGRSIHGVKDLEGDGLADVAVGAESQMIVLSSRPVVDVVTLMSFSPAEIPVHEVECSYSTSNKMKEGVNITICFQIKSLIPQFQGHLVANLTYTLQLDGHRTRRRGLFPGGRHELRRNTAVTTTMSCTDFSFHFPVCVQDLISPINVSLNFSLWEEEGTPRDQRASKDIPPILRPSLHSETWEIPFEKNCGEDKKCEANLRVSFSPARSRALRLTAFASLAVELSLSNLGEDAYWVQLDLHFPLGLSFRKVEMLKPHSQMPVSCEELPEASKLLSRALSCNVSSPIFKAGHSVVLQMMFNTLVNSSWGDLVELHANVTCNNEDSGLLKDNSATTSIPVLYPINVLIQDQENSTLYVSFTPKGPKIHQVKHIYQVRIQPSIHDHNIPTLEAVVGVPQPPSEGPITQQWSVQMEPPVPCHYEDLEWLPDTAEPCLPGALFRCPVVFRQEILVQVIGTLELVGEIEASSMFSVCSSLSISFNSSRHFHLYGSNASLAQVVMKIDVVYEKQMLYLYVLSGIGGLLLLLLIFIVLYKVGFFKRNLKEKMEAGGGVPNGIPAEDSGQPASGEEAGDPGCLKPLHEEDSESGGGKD

[4] = molecular target: T2, rhesus CD11a; assay: binding to rhesus peripheral blood lymphocytes; end assigned by the printed EC50s
[5] = molecular target: T2, rhesus CD11a; assay: rhesus EC50 of the variant against human EC50 of HuIgG1; end assigned by the printed EC50s
[6] = molecular target: T2, rhesus CD11a; assay: binding to rhesus peripheral blood lymphocytes; ratio to HuIgG1 EC50 (45.6 nM)
[7] = molecular target: T2, rhesus CD11a; assay: cell-based or functional assay
[8] = molecular target: T3, rhesus-human chimeric CD11a (human (I-domain mutated to rhesus), UniProt P20701 26-1170); assay: cell-based or functional assay
T3 sequence (looked up): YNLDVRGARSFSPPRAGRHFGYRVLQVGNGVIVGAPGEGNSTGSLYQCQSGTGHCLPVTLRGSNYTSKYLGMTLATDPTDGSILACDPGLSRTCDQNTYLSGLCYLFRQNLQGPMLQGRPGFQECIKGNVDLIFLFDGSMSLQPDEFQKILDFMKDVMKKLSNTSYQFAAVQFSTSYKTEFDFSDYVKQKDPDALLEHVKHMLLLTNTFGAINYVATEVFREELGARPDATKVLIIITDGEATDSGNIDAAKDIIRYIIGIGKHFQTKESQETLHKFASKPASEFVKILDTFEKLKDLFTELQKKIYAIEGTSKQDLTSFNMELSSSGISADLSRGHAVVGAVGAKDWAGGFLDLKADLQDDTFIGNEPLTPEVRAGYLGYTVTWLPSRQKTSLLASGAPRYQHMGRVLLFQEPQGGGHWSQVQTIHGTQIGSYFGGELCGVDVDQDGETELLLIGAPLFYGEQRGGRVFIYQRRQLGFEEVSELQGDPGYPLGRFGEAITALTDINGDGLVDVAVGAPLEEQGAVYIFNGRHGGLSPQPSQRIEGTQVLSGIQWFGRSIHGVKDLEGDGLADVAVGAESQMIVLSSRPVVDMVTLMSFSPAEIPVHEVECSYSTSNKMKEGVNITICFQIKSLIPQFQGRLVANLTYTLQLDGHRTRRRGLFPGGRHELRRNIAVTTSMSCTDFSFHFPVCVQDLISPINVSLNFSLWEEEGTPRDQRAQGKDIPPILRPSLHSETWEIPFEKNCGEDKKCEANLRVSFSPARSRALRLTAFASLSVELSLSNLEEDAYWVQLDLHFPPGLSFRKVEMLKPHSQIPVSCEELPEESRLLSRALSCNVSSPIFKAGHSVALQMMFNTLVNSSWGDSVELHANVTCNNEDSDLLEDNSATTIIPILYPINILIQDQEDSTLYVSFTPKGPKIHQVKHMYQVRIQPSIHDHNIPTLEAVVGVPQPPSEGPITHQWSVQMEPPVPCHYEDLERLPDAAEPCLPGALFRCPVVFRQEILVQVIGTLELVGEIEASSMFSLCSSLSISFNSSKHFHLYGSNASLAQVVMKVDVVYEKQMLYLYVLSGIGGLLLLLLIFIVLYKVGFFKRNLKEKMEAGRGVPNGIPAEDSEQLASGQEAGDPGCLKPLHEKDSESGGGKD

[9] = molecular target: T2, rhesus CD11a; assay: cell-based or functional assay; remark: listed apart in the source
[10] = molecular target: T3, rhesus-human chimeric CD11a; assay: cell-based or functional assay; remark: listed apart in the source
[11] = molecular target: T2, rhesus CD11a; assay: cell-based or functional assay; remark: listed apart in the source
[12] = molecular target: T2, rhesus CD11a; assay: saturation binding, Kd(app) compared
Method: Antibody affinities were determined by saturation binding using either peripheral blood mononuclear cells (murine MHM24 and HuIgG1) or rhesus leukocytes (MHM23, RhIgG1). In each assay, a radiolabeled antibody was serially diluted in HBSS-0.2% gelatin in quadruplicate. Nonspecific binding was determined by the addition of 500 nM final concentration of homologous unlabeled antibody in duplicate through the serial dilution. Human lymphocytes or rhesus leukocytes were added to the plates in a volume of 170 μl per well. Plates were incubated for 2 hr at room temperature on an orbital plate shaker. After incubation, cells were harvested using a SKATRON™ cell harvester (Lier, Norway) and washed 10 times with PBS containing 0.25% gelatin and 0.1% sodium azide. Samples were then counted for 1 min in an LBK Wallac GammaMaster gamma counter (Gaithersburg, Md.). Data was transformed from counts per minute to nanomolarity and four-parameter curve-fitting of saturation plots (bound versus total) was then performed to determine Kd (app) values.

B1: humanized MHM24 HuIgG1 (antibody, V domains shown)
VH: EVQLVESGGGLVQPGGSLRLSCAASGYSFTGHWMNWVRQAPGKGLEWVGMIHPSDSETRYNQKFKDRFTISVDKSKNTLYLQMNSLRAEDTAVYYCARGIYFYGTTYFDYWGQGTLVTVSS
VL: DIQMTQSPSSLSASVGDRVTITCRASKTISKYLAWYQQKPGKAPKLLIYSGSTLQSGVPSRFSGSGSGTDFTLTISSLQPEDFATYYCQQHNEYPLTFGQGTKVEIKR
notes: F(ab)-8 VL and VH fused to human constant light and IgG1 heavy chains; also called huMHM24
Q: For B1, which “IC50 Value (nM), Jurkat:HuK cell adhesion” value [1] is on record?
A: The value was 0.13 nM.

Q: What about the “IC50 Value (nM), human mixed lymphocyte response” value [2] of the same binder?
A: The value was 0.38 nM.

Q: What about the “fold reduction in binding (rhesus against human CD11a)” value [3] of the same binder?
A: The value was about 1000 fold.

B2: H2C11 (antibody, V domains shown)
VH: B1 VH with H52A, S54A, D55S, E57N
VL: B1 VL
Q: B2 was tested. Which “fold improvement over the EC50 of HuIgG1 for rhesus CD11a” value [4] did it give?
A: The value was 240 to 415 fold.

Q: What about the “fold weaker than the EC50 of HuIgG1 for human CD11a” value [5] of the same binder?
A: Its value is 3 to 5 fold.

B3: SerL52Ala (antibody, human IgG1, V domains shown)
VH: B1 VH
VL: B1 VL with S52A
notes: HuIgG1 variant (human IgG1)
Q: Which “Var.EC50/HuIgG1 EC50” value [6] does the source give for B3 here?
A: The value was 13.3 ratio.

B4: rhesus-binding MHM24 RhIgG1 (antibody, V domains shown)
VH: B1 VH with H52A, S54A, D55S, E57S
VL: B1 VL
notes: HuIgG1 variant, human IgG1; also called H2C12; rhesusized antibody
Q: What does the source list for B4?
A: fold less efficacious than MHM23, RhLy:HuICAM adhesion [7]: 4 fold; fold less efficacious than MHM23, RhLy:HuK adhesion [7]: 74 fold; fold down from MHM23, Rh/HuCD11a:HuK adhesion [8]: 4 fold; IC50 Value (nM), RhLy:HuICAM cell adhesion [9]: 5.3 nM; IC50 Value (nM), RhLy:HuK cell adhesion [9]: 119 nM; IC50 Value (nM), Rh/HuCD11a:HuK cell adhesion [10]: 4.9 nM; IC50 Value (nM), rhesus mixed lymphocyte response [11]: 23.4 nM; fold down from the Kd of HuIgG1 for human CD11a [12]: ~26 fold; fold improvement over the EC50 of HuIgG1 for rhesus CD11a [4]: 240 to 415 fold; fold weaker than the EC50 of HuIgG1 for human CD11a [5]: 3 to 5 fold
